According to PMC8849298, “Structure of ATP synthase from ESKAPE pathogen Acinetobacter baumannii” (Science Advances, 2022):

T1: A. baumannii F1Fo-ATP synthase γ-subunit (Acinetobacter baumannii ATCC 17978 …, UniProt A3M143 1-289)
T1 construct: ATP synthase subunit gamma, Acinetobacter baumannii ATCC 17978; source: endogenous, A. baumannii ATCC 17978 membranes
T1 sequence (looked up): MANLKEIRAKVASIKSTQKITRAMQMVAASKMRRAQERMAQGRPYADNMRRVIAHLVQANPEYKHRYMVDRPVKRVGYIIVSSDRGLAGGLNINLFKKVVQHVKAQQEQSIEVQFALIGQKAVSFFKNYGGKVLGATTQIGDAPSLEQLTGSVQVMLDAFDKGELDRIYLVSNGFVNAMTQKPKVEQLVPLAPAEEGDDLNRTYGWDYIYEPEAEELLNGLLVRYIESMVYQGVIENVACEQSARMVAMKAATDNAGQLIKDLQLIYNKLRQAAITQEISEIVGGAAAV

B1: A. baumannii F1Fo-ATP synthase β-subunit, StrepII-tagged (natural protein, Acinetobacter baumannii, UniProt A3M144 1-464, looked up)
chain: MSSGRIIQIIGAVIDVEFERTSVPKIYDALQVDGTETTLEVQQQLGDGVVRTIAMGSTEGLKRGLTVTSTNAPISVPVGTATLGRIMDVLGRPIDEAGPVATEERLPIHRQAPSYAEQAASTDLLETGIKVIDLLCPFAKGGKVGLFGGAGVGKTVNMMELINNIAKAHSGLSVFAGVGERTREGNDFYHEMKDSNVLDKVAMVYGQMNEPPGNRLRVALTGLTMAEYFRDEKDENGKGRDVLLFVDNIYRYTLAGTEVSALLGRMPSAVGYQPTLAEEMGVLQERITSTKSGSITSIQAVYVPADDLTDPSPATTFAHLDATVVLSRDIASSGIYPAIDPLDSTSRQLDPLVVGQEHYEIARAVQNVLQRYKELKDIIAILGMDELAEEDKLVVYRARKIQRFFSQPFHVAEVFTGAPGKLVPLKETIRGFKGLLAGEYDHIPEQAFYMVGGIDEVIAKAEKL
notes: ATP synthase subunit beta, Acinetobacter baumannii; gene at 3815454-3814060 of GenBank CP053098.1, amplified from genomic DNA with a StrepII tag coded at the 5' end; Three copies stand in the complex; also called βDP*; βTP; not shown: StrepII, N-terminal, kept
B2: A. baumannii F1Fo-ATP synthase ε-subunit (natural protein, UniProt A3M145 1-139, looked up)
chain: MATMQCDVVSVKESIYSGAVTMLIAKGAGGELGILPGHAPLVTLLQPGPIRVLLENGTEEIVYVSGGVLEVQPHVVTVLADTAIRADNLDEAAILEARKNAEQLLANQKSDLDSAAALAALAETAAQLETIRKIKNRAQ
notes: ATP synthase subunit epsilon, Acinetobacter baumannii ATCC 17978; also called subunit ε; source: endogenous, A. baumannii ATCC 17978 membranes
B3: A. baumannii F1Fo-ATP synthase c-subunit (c10 ring) (natural protein, UniProt A3M139 1-81, looked up)
chain: MELTLGLVAIASAILIAFGALGTAIGFGLLGGRFLEAVARQPELAPQLQTRMFLIAGLLDAVPMIGVGIGLFFIFANPFVG
notes: ATP synthase subunit c, Acinetobacter baumannii ATCC 17978; also called c-ring; source: endogenous, A. baumannii ATCC 17978 membranes; copies: 10

What was measured:
Assay in all cases: cryo-EM structure; single-particle cryo-EM of the whole F1Fo-ATP synthase purified from A. baumannii membranes via the StrepII tag on β and reconstituted into peptidiscs; three rotational states; buffer A (50 mM Hepes pH 6.8, 150 mM KCl, 5 mM MgCl2) without detergent
[1] = biological target: T2, A. baumannii F1Fo-ATP synthase α-subunit (Acinetobacter baumannii ATCC 17978 …, UniProt A3M142 1-514); settings: both partners purified
T2 construct: ATP synthase subunit alpha, Acinetobacter baumannii ATCC 17978; Three copies stand in the complex (α3β3γδεab2c10); also called αDP; αE; source: endogenous, A. baumannii ATCC 17978 membranes

[2] = biological target: B1; settings: both partners purified
[3] = biological target: T1, A. baumannii F1Fo-ATP synthase γ-subunit; settings: both partners purified
[4] = biological target: the molecule itself
[5] = biological target: T3, A. baumannii F1Fo-ATP synthase a-subunit (Acinetobacter baumannii ATCC 17978 …, UniProt A3M137 1-291); settings: both partners purified
T3 construct: ATP synthase subunit a, Acinetobacter baumannii ATCC 17978; S5A; also called proton-conducting a-subunit; source: endogenous, A. baumannii ATCC 17978 membranes
T3 sequence (A3M137 whole entry): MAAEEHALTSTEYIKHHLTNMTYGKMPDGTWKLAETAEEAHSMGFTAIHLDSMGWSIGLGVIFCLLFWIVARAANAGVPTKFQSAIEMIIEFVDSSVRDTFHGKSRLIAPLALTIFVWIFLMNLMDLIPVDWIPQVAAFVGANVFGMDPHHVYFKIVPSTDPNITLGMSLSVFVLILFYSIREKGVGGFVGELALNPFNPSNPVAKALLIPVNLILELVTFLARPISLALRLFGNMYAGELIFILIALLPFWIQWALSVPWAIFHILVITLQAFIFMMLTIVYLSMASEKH

T2 sequence (A3M142 whole entry): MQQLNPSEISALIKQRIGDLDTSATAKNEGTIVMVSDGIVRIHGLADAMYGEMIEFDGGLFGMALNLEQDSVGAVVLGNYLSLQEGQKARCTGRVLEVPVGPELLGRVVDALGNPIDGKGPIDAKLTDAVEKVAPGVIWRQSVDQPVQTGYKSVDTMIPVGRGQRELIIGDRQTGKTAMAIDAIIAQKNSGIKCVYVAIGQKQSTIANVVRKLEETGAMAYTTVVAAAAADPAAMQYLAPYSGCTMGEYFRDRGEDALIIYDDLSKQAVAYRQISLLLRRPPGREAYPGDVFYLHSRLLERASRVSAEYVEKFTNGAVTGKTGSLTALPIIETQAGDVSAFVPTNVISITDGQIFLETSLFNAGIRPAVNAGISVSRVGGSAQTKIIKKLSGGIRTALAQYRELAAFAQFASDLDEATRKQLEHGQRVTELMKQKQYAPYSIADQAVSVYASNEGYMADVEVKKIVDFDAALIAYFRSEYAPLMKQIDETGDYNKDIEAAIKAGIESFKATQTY

B1: binds [1].

B2: binds [1]; binds [2]; binds [3].

With B3 the “stoichiometry N” value [4] was 10 and the binding result [5] was “binds”.
